Measured values taken from patent publication US20140348834A1 (published 2014).
Like-named read-outs stand apart in the source and are kept apart here.

Experiments:
[1] = molecular target: T1, human IL-17A (human, UniProt Q16552 24-155); experiment: cell-based or functional assay
T1 sequence (Q16552 24-155 limits assumed): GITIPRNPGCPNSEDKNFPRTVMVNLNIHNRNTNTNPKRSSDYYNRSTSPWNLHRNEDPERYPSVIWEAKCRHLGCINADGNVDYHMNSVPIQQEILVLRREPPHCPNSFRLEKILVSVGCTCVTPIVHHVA

[2] = molecular target: human IL-17A/F (human, UniProt Q16552 24-155; Q96PD4 31-163); experiment: cell-based or functional assay
[3] = molecular target: cynomolgous monkey (cyno) IL-17A (cynomolgus monkey, UniProt A0A2K5TTB0 24-155); experiment: cell-based or functional assay
cynomolgous monkey (cyno) IL-17A, sequence (A0A2K5TTB0 entry or part of it): as the sequence (Q16552 24-155 limits assumed) above, with T3A, P8S, N34S, I77V, N78K, P104R counted along it

[4] = molecular target: T2, human IL-17A (human, UniProt Q16552 24-155); experiment: hIL17A ELISA
T2 construct: Recombinant; biotinylated in the ELISA; also called hIL-17; hIL17A
T2 sequence (Q16552 24-155): as the sequence (Q16552 24-155 limits assumed) above

[5] = molecular target: T2, human IL-17A; experiment: cell-based or functional assay; remark: listed apart in the source
[6] = molecular target: cynomolgus monkey IL-17A (cynomolgus monkey, UniProt A0A2K5TTB0 24-155); experiment: cell-based or functional assay
cynomolgus monkey IL-17A, sequence (A0A2K5TTB0 entry or part of it): as the sequence (Q16552 24-155 limits assumed) above, with T3A, P8S, N34S, I77V, N78K, P104R counted along it

[7] = molecular target: T1, human IL-17A; experiment: ELISA, captured antibody, serially diluted biotin-IL-17 (Example 1.5.1)

human IL-17A/F, sequence (Q16552 24-155 limits assumed, chain 1 of 2): as the sequence (Q16552 24-155 limits assumed) above
human IL-17A/F, sequence (Q96PD4 31-163 limits assumed, chain 2 of 2): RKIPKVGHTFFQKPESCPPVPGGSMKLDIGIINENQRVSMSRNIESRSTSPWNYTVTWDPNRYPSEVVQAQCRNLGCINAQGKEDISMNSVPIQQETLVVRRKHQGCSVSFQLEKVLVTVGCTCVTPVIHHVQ

Binder | Potency (pM), IL-17-driven IL-6 production in HS27 cells [1] [pM] | Potency (pM), IL-17-driven IL-6 production in HS27 cells [2] [pM] | Potency (pM), IL-17-driven IL-6 production in HS27 cells [3] [pM] | EC50 [4] [nM] | Potency (pM), IL-17-driven IL-6 production in HS27 cells [5] [pM] | Potency (pM), IL-17-driven IL-6 production in HS27 cells [6] [pM] | EC50 [7] [nM]
B6-44 (antibody, V domains shown) VH: EVQLVQSGAEVKKPGSSVKVSCKASGGSFLSYGFSWVRQAPGQGLEWMGGITPFFGLADYAQKFQGRVTITADESTTTAYMELSGLTSDDTAVYYCARESSEFWNGYYCTQDFDLWGQGTTVTVSS VL: EIVLTQSPDFQSVTPKEKVTITCRASQDIGSDLHWYQQKPDQSPKLLIKYASNSISGVPSRFSGSGSGTDFTLTINGLEAEDAGTYYCHQTAYLPQTFGPGTKVDIK | 120 | 288 | 65 |  |  |  | 
IL17-h5C5.19 (antibody, V domains shown, IgG; constant regions not specified) VH: QVQLQQSGAELVRPGASVKLSCKALGYTFTDYEFHWVKQTPVHGLEWIGVIHPGNGGTAYNQNFRDKATLTADKSSSTAYMELSSLTSEDSGVYYCTRFLTYEGYFDYWGQGTALTVSS VL: NIVMTQSPATLSVSPGERATLSCKASQSVSIDVGWFQQKPGQSPRLLIYHASNRYTGVPARFSGSGSGTDFTLTISSLQPEDFAVYFCQQDYSSPYTFGQGTKLEIKR |  |  |  | 0.03 | 11 | 9 | 
IL17-G9-1 (antibody, V domains shown) VH: EVQLLESGGGVVQPGRSLRLSCAASGFIFSNYGMHWVRQAPGKGLEWVAVISYDGSNKYYADSVKGRFTISRDNSKNTLYLEMNSLRPEDTAVYYCAKVGASGDYYYSYGLDVWGQGTTVTVSS VL: QSVLTQPPSASGTPGQTVSISCSGSHSNIGRHPVDWYQQVPGAAPKLLMYYGGYRPSGVPDRFSGSQSGTSASLAISGLQSEDEADYYCATWDDRLVGYVFGSGTKVTVLG | 27 | 99 | 604 |  |  |  | 0.13
IL17-G9-4 (antibody, V domains shown, no own VH entry is printed) VH: EVQLLESGGGVVQPGRSLRLSCAASGFIFSNYGMHWVRQAPGKGLEWVAVISYDGSNKYYADSVKGRFTISRDNSKNTLYLEMNSLRPEDTAVYYCAKVGASGDYYYSYGLDVWGQGTTVTVSS VL: QSVLTQPPSASGTPGQTVSISCSGRQSNIGRHYVDWYQQVPGAAPKLLMYYDSIRPSGVPDRFSGSQSGTSASLAISGLQSEDEADYYCATWDDSLGGYVFGSGTKVTVLG | 38 | 119 | 247 |  |  |  | 0.06
IL17-G9-2 (antibody, V domains shown) VH: EVQLLESGGGVVQPGRSLRLSCAASGFIFRNYGMHWVRQAPGKGLEWVAVISYDGSNKYYADSVKGRFTISRDNSKNTLYLEMNSLRPEDTAVYYCAKVGASGDYYYSYGLDVWGQGTTVTVSS VL: QSVLTQPPSASGTPGQTVSISCSGSNSNIGRHPVDWYQQVPGAAPKLLIYYDDQRPSGVPDRFSGSQSGTSASLAISGLQSEDEADYYCATWDDSLGGYVFGSGTKVTVLG | 24 | 147 | 157 |  |  |  | 0.18
IL17-G9-M2 (antibody, V domains shown) VH: EVQLLESGGGVVQPGRSLRLSCAASGFIFSNYGMHWVRQAPGKGLEWVAVISYDGSNKYYADSVKGRFTISRDNSKNTLYLEMNSLRPEDTAVYYCAKVGASGDYYYSYGLDVWGQGTTVTVSS VL: QSVLTQPPSASGTPGQTVSISCSGHNSNIGYHYVHWYQQVPGAAPKLLIYGDGWRPSGVPDRFSGSQSGTSASLAISGLQSEDEADYYCGTWDDWLGGYVFGTGTKVTVLG | 38 | 44 | 105 |  |  |  | 0.08
